Laboratory results as given in article PMC6321344, “Evaluation of [^68Ga]Ga-DOTA-TCTP-1 for the Detection of Metalloproteinase 2/9 Expression in Mouse Atherosclerotic Plaques” (Molecules, 2018).
Positions of bridges follow the written chain, without caps; N, C: chain ends. Residues, ends and D or L forms follow the SMILES beside them. *: point of attachment. X1 = O=C(O)CN1CCN(CC(=O)O)CCN(CC(=O)NCCOCCOCCN*)CCN(CC(=O)O)CC1

Experiments:
[1] = in vivo; design: species or system mouse; conditions: both sexes, iv, 18 MBq, total radioactivity, Tracer uptake
Source text: (§1) Sixteen (eleven males, five females) low-density lipoprotein receptor deficient mice expressing only apolipoprotein B100 (LDLR^-/-ApoB^100/100, Jackson Laboratory, Bar Harbor, ME, USA, strain #003000) were used. Mice were kept on a Western-type diet for 4.4 months starting at the age of 3.5 months. Forty-two percent of their calorific intake consisted of fat and 0.2% cholesterol (TD 88137, Harlan Teklad, Harlan Laboratories, Madison, WI, USA). Nine C57BL/6N mice on a regular chow diet (five males, four females) were used as controls. The mean age and weight of the studied mice at the time of tracer injection were 8.2 ± 0.70 months and 38 ± 8.0 g for the LDLR^-/-ApoB^100/100 mice, and 3.9 ± 0.86 months and 31 ± 5.8 g for the controls. During the studies, mice were housed under standard conditions (light and humidity) with ad libitum access to water and food. The study protocol was approved by the National Animal Experiment Board in Finland and the Regional State Administrative Agency for Southern Finland, and carried out in compliance with the relevant European Union directives. The high-performance liquid chromatography (HPLC) system was a LaChrom instrument (Hitachi; Merck Darmstadt, Germany), including a pump L7100, an ultraviolet (UV) detector L-7400, an interface D-7000 and a computerized data acquisition and processing software. The reversed-phase HPLC column (μBondapak 10 μm C18, 7.8 × 300 mm, pore size 125 Å) was purchased from Waters Corporation, Milford, MA, USA. The online radioisotope detector (Radiomatic 150 TR, Flow Scintillation Analyzer) was from Packard, Meriden, CT, USA. The precursor compound DOTA-TCTP-1 (Figure 1) was obtained as a custom synthesis from Peptide Specialty Laboratories GmbH (Heidelberg, Germany).
(§2) Isoflurane anesthetized mice were intravenously (i.v.) injected with 18 ± 2.7 MBq (in 50–100 µL) of [^68Ga]Ga-DOTA-TCTP-1 via the tail vein. At 60 min after tracer injection, a blood sample was obtained by cardiac puncture and animals were killed by cervical dislocation. Various tissues were excised, weighed, and measured for radioactivity on a gamma counter (Triathler 3”, Hidex, Turku, Finland). Radioactivity values were normalized by the injected radioactivity dose decay with a delta time between injection and measurement, animal weight, and the weight of tissue. Results are expressed as the percentage of injected radioactivity dose per gram of tissue (%ID/g).

[2] = in vivo; conditions: both sexes, C57BL/6N, mouse, iv, 18 MBq, total radioactivity, Tracer uptake
Source text: as §1, §2

[3] = in vivo; conditions: LDLR^-/-ApoB^100/100, mouse, iv, 11 MBq, total radioactivity
Protocol: A subset of mice (three atherosclerotic and three healthy controls) were imaged using a small-animal PET/computed tomography (CT) scanner (Inveon Multimodality; Siemens Medical Solutions, Knoxville, TN, USA). The mice were anesthetized using 1.5% isoflurane, and their temperature was maintained using a heating pad throughout the imaging. Mice were i.v. injected with 11 ± 0.86 MBq (in 50–100 µL) of [^68Ga]Ga-DOTA-TCTP-1 via the tail vein. PET data were acquired in a list-mode for 60 min, starting from the time of injection of [^68Ga]Ga-DOTA-TCTP-1. The images were reconstructed using an ordered-subset expectation maximization 2D algorithm with four iterations into 30 × 3 s, 9 × 10 s, 4 × 30 s, 5 × 60 s, and […] time frames. Immediately after the PET scan, 100 µL of intravascular iodinated contrast agent eXIATM160XL (Binitio Biomedical Inc., Ottawa, ON, Canada) was injected and high-resolution CT was acquired (80 kV, 500 μA). CT images were reconstructed using a Feldkamp-based algorithm, and images were analyzed using Carimas v.2.6 software (Turku PET Centre, Turku, Finland). ROIs were drawn in the aortic arch, blood pool (inside the LV cavity), and several relevant organs, according to the high-resolution CT image. Results are reported as the percentage of injected dose per gram (%ID/g) as a function of the time after injection, i.e., as time-activity curves.

[4] = tested on: MMP-2/9; conditions: quoted with the dose of the commercial inhibitor; ref product number 444251, Merck KGaA; cited from earlier work

## CC(C)C[C@@H]1NC(=O)[C@@H](NC(=O)[C@H](C)NC(=O)CN)CSSC[C@@H](C(=O)NCC(=O)NCCOCCOCCNC(=O)CN2CCN(CC(=O)O)CCN(CC(=O)O)CCN(CC(=O)O)CC2)NC(=O)CNC(=O)[C@H](CCCNC(=N)N)NC(=O)CNC(=O)[C@H](CO)NC(=O)[C@H](CCCNC(=N)N)NC1=O [[^68Ga]Ga-DOTA-TCTP-1, metal not drawn] (H-GACLRSGRGCG-X1; disulfide 3-10)
[1]; LDLR-/-ApoB100/100, mouse, Bone
  tissue uptake at 1 h: 0.53 ± 0.37 %ID/g
[1]; LDLR-/-ApoB100/100, mouse, Heart
  tissue uptake at 1 h: 0.23 ± 0.083 %ID/g
[1]; LDLR-/-ApoB100/100, mouse, Intestine
  tissue uptake at 1 h: 0.59 ± 0.22 %ID/g
[1]; LDLR-/-ApoB100/100, mouse, Kidneys
  tissue uptake at 1 h: 8 ± 2.9 %ID/g
[1]; LDLR-/-ApoB100/100, mouse, Liver
  tissue uptake at 1 h: 1.8 ± 0.48 %ID/g
[1]; LDLR^-/-ApoB^100/100, mouse, Aorta
  tissue uptake at 1 h: 0.43 ± 0.19 %ID/g
[1]; LDLR^-/-ApoB^100/100, mouse, Blood
  tissue uptake at 1 h: 1.3 ± 0.4 %ID/g
[1]; LDLR^-/-ApoB^100/100, mouse, Lungs
  tissue uptake at 1 h: 2.8 ± 1.6 %ID/g
[1]; LDLR^-/-ApoB^100/100, mouse, Lymph node
  tissue uptake at 1 h: 0.49 ± 0.15 %ID/g
[1]; LDLR^-/-ApoB^100/100, mouse, Pancreas
  tissue uptake at 1 h: 0.35 ± 0.17 %ID/g
[1]; LDLR^-/-ApoB^100/100, mouse, Plasma
  tissue uptake at 1 h: 2.6 ± 1.4 %ID/g
[1]; LDLR^-/-ApoB^100/100, mouse, Salivary gland
  tissue uptake at 1 h: 0.38 ± 0.15 %ID/g
[1]; LDLR^-/-ApoB^100/100, mouse, Skeletal muscle
  tissue uptake at 1 h: 0.19 ± 0.077 %ID/g
[1]; LDLR^-/-ApoB^100/100, mouse, Spleen
  tissue uptake at 1 h: 1.9 ± 1.6 %ID/g
[1]; LDLR^-/-ApoB^100/100, mouse, Thymus
  tissue uptake at 1 h: 0.35 ± 0.29 %ID/g
[1]; LDLR^-/-ApoB^100/100, mouse, WAT (white adipose tissue)
  tissue uptake at 1 h: 0.17 ± 0.21 %ID/g
[2]; Aorta
  tissue uptake at 1 h: 0.52 ± 0.25 %ID/g
[2]; Blood
  tissue uptake at 1 h: 0.69 ± 0.21 %ID/g
[2]; Bone
  tissue uptake at 1 h: 0.63 ± 0.5 %ID/g
[2]; Heart
  tissue uptake at 1 h: 0.16 ± 0.066 %ID/g
[2]; Intestine
  tissue uptake at 1 h: 0.43 ± 0.18 %ID/g
[2]; Kidneys
  tissue uptake at 1 h: 8.9 ± 3.6 %ID/g
[2]; Liver
  tissue uptake at 1 h: 3.2 ± 1.6 %ID/g
[2]; Lungs
  tissue uptake at 1 h: 1.3 ± 0.74 %ID/g
[2]; Lymph node
  tissue uptake at 1 h: 0.48 ± 0.19 %ID/g
[2]; Pancreas
  tissue uptake at 1 h: 0.17 ± 0.056 %ID/g
[2]; Plasma
  tissue uptake at 1 h: 1.5 ± 1 %ID/g
[2]; Salivary gland
  tissue uptake at 1 h: 0.23 ± 0.07 %ID/g
[2]; Skeletal muscle
  tissue uptake at 1 h: 0.17 ± 0.13 %ID/g
[2]; Spleen
  tissue uptake at 1 h: 1.7 ± 1.3 %ID/g
[2]; Thymus
  tissue uptake at 1 h: 0.23 ± 0.07 %ID/g
[2]; WAT (white adipose tissue)
  tissue uptake at 1 h: 0.17 ± 0.11 %ID/g
[3]; Radioactivity in myocardium (PET/CT)
  tissue uptake at 1 h: 0.81 ± 0.3 %ID/g
[3]; Uptake in atherosclerotic aorta (PET/CT)
  tissue uptake at 1 h: 0.77 ± 0.16 %ID/g
[3]; Uptake in blood pool (PET/CT)
  tissue uptake at 1 h: 1.1 ± 0.64 %ID/g
[3]; Uptake in liver (PET/CT)
  tissue uptake at 1 h: 4.7 ± 3.8 %ID/g

## H-Cys^1-Thr-Thr-His-Trp-Gly-Phe-Thr-Leu-Cys^10-OH (cyclic: 1→10) (disulfide) [MMP-2/9 inhibitor]
[4]
  IC50: 10 µM
